For data set [1], the system named is 5 MRSA strains and 5 MSSA strains. Kind of data set: Checkerboard synergy assay with daptomycin or vancomycin. The following applies: with vancomycin. The format is cell-based, Staphylococcus aureus. On the procedure: Synergy studies with antibiotics suitable for treatment of Gram-positive bacteria, for example, daptomycin (DAP) and vancomycin (VAN), were performed using a checkerboard assay. Fractional inhibitory concentration (FIC) index values were determined for modified lysin polypeptide pp296 and antibiotic combinations against 5 methicillin-sensitive Staphylococcus aureus (MSSA) and 5 methicillin resistant Staphylococcus aureus (MRSA) isolates. An FIC index value of ≤0.5 may be interpreted as strong synergy between the two agents, while a value between 0.5 and 1 may still be considered a synergistic effect. Given that pp296 has four amino acid replacements in the catalytic domain, the ability of pp296 to synergize with antibiotics was unexpected. […] Qualitatively similar results may be anticipated upon performing similar assays using other de-immunized active variants, such as pp55, pp61, pp65, pp400, and pp619, in accordance with the present disclosure.
In another experiment, the ability of modified lysin polypeptide pp296 to synergize with daptomycin and vancomycin was assessed using a checkerboard analysis. FIC (fractional inhibitory concentration) index values were determined for pp296 and antibiotic combinations against 5 MSSA and 5 MRSA isolates. A total of 50 μl of Mueller-Hinton broth (BBL) was distributed into each well of microdilution plates. The first antibiotic of the combination was serially diluted along the ordinate, while the second drug was diluted along the abscissa. An inoculum equal to a 0.5 McFarland turbidity standard was prepared from each S. aureus isolate in MHB. Each microtiter well was inoculated with 100 μl of a bacterial inoculum of 5×10^5 CFU/ml, and the plates were incubated at 37° C. for 18 h under aerobic conditions. The resulting checkerboard contained each combination of two antibiotics, with wells that contained the highest concentration of each antibiotic at opposite corners. […] To quantify the interactions between the antibiotics being tested, the FIC index (the combination of antibiotics that produced the greatest change from the individual antibiotic's MIC) value was calculated for each strain and antibiotic combination as follows:
(A/MICA)+(B/MICB)=FICA+FICB=FIC index,
Checkerboards were generated using combinations of pp296 with either daptomycin or vancomycin against 5 MRSA strains (MW2, JMI-5675, JMI-4408, JMI-6181, and JMI-6182) and 5 MSSA strains (ATCC 29213, JMI-40979, JMI-43257, JMI-41293, and JMI-49315). Synergy was defined as inhibitory activity greater than what would be predicted by adding the two components together.

For data set [2], the system named is bacterial inoculum. Kind of data set: Thermal stability: in vitro lytic assay after 30 min heating. In kind it is cell-based. The settings on record: 30 minutes at 37° C., 128 μg/mL in Tris buffer pH 8.0; CF-301 set at 100. On the procedure:
Thermal stability was assessed by incubating the lysin polypeptides at a fixed concentration of 128 μg/mL in Tris buffer pH 8.0 for 30 minutes at various elevated temperatures (within the range of about 30° C. to 60° C.) prior to assessing activity. The samples were then cooled for 2 minutes on ice and activity was then assessed by an in vitro lytic assay by exposing a bacterial inoculum (OD600 ˜0.5-1.2) in Tris buffer to a 2-fold dilution series of each sample (diluted from 128-0.25 μg/mL across the x-axis of a 96 well microtiter plate). The loss of optical density was followed for 15 minute at room temperature, and the specific activity was determined based on the enzyme concentration enabling a 50% loss of optical density at 15 minutes. The enzyme activities of each variant were compared to the wild-type, CF-301 enzyme (GMT-grade PlySs2 protein) to calculate the % of Wild-Type Activity over a range of temperatures.
The thermal stability of wild-type, CF-301 was arbitrarily set at 100. The results for exemplary modified lysin polypeptides are set forth below in Table 5 at a single temperature of 37° C.:
In another experiment, the thermal stability of modified lysin polypeptides was assessed at different temperatures and compared with that of wild-type, CF-301 (set at 100).

Data set [3] in a line: Toxicity screening in mice. The format is in vivo. As to the method:
Selected modified lysin polypeptides from Table 3 were subjected to further testing as described in more detail in subsequent Examples. […] The same 30 mg/kg dose of PlySs2 caused a 100% incidence of adventitial findings, which is an indication of potential toxicity.

Data set [4] has as its system 1-day old biofilms formed by MRSA isolates. Kind of data set: Minimum Biofilm Eradication Concentration (MBEC), MRSA biofilms. In kind it is cell-based, Staphylococcus aureus. The settings on record: 24 hours treatment. As to the method:
(§1) In some embodiments, the present modified lysin polypeptides are capable of reducing a biofilm. […] Biofilms are then washed and treated with e.g., a 2-fold dilution series of the lysin in TSBg at e.g., 37° C. for 24 hours. After treatment, wells are washed, air-dried at e.g., 37° C. and stained with e.g., 0.05% crystal violet for 10 minutes. After staining, the biofilms are destained in e.g., 33% acetic acid and the OD600 of e.g., extracted crystal violet is determined. The MBEC of each sample is the minimum lysin concentration required to remove >95% of the biofilm biomass assessed by crystal violet quantitation.
(§2) The anti-biofilm activity of pp296 was determined against 1-day old biofilms formed by 17 MSSA and 20 MRSA isolates in a 96-well broth microdilution format. The Minimum Biofilm Eradication Concentration (MBEC) values for pp296, compared to wild-type PlySs2 (CF-301), were determined by the following standard methodology. Bacteria were suspended in PBS (0.5 McFarland Units), diluted 1:100 in TSBg (66% tryptic soy broth, 0.2% glucose), added as 0.15 mL aliquots to 96-well polystyrene microplates, and incubated for 24 hours at 37° C. Biofilms were then washed and treated with a 2-fold dilution series of CF-301 or pp296 in TSBg at 37° C. for 24 hours. All samples were examined in triplicate. After treatment, wells were washed, air-dried at 37° C., and stained with 0.05% crystal violet for 10 min The loss of biofilm biomass was assessed visually, and crystal violet was quantitated by solubilization in 33% (vol/vol) acetic acid. The optical density of 600 nm (OD600) was determined using a SpectraMax M3 Multimode microplate reader. The MBEC of each sample was the minimum lysin concentration required to remove >95% of the biofilm biomass assessed by crystal violet quantitation.

The subject of data set [5] is MRSA isolates. Nature of the data set: MIC in CAMHB-HSD against MRSA isolates. In kind it is cell-based, Staphylococcus aureus. The following applies: 51 MRSA isolates. On the procedure: (§3) In vitro activity of the modified lysin polypeptide pp296 was assessed against a range of 51 MSSA and 51 MRSA isolates in cation-adjusted Mueller Hinton broth supplemented with 25% horse serum and 0.5 mM DTT (CAMHB-HSD) and compared to WT GMP grade PlySs2 (CF-301). CF-301 and pp296 were each diluted into CAMHB-HSD. For each lysin, the dilution series is set up such that, after a two-fold dilution of each well of the plate, the final concentrations contained: 64, 32, 16, 8, 4, 2, 1, 0.5, 0.25, and 0.125 μg/mL. Each lysin was tested in duplicate against each strain. Preparations were incubated overnight. Growth was visualized as a growth button approximately 2 mm in diameter. The highest dilution that yielded ≥80% growth inhibition was called the minimum inhibitory concentration (MIC). The activity of pp296 was very similar, within one 2-fold dilution, to that of CF-301, as shown below in Table 7.

Data set [6] deals with 1-day old biofilms formed by MSSA isolates. Kind of data set: Minimum Biofilm Eradication Concentration (MBEC), MSSA biofilms. The format is cell-based, Staphylococcus aureus. The settings on record: 24 hours treatment. As to the method: as §1, §2
For data set [7], the system named is MSSA isolates. Kind of data set: MIC in CAMHB-HSD against MSSA isolates. The following applies: 51 MSSA isolates. In kind it is cell-based, Staphylococcus aureus. As to the method: as §3
Data set [8] has as its system 5 MRSA strains and 5 MSSA strains. Nature of the data set: Checkerboard synergy assay with daptomycin or vancomycin. In kind it is cell-based, Staphylococcus aureus. The settings on record: MRSA (JMI-41293) strain.

The values that follow come from patent publication US20210032294A1, “MODIFIED PlySs2 LYSINS AND USES THEREOF” (CONTRAFECT CORPORATION, priority 2018, published 2021).

B1: CF-301: WT GMP grade PlySs2 lysin, SEQ ID NO: 1 (protein, listed as Streptococcus suis)
chain: MTTVNEALNNVRAQVGSGVSVGNGECYALASWYERMISPDATVGLGAGVGWVSGAIGDTISAKNIGSSYNWQANGWTVSTSGPFKAGQIVTLGATPGNPYGHVVIVEAVDGDRLTILEQNYGGKRYPVRNYYSAASYRQQVVHYITPPGTVAQSAPNLAGSRSYRETGTMTVTVDALNVRRAPNTSGEIVAVYKRGESFDYDTVIIDVNGYVWVSYIGGSGKRNYVATGATKDGKRFGNAWGTFK
Regarding B1, the FIC index in data set [1] (MRSA JMI-6182), in data set [1] (MSSA ATCC 29213), in data set [1] (MSSA strain JMI-40979), in data set [1] (against 6 of the 10 strains examined) and in data set [8] was 0.5 each time. The “% Wild-Type Activity at 37° C.” value in data set [2] amounted to 100%. Further, the “Kidney findings (renal changes)” value in data set [3] is listed as “did not result in kidney findings”. Moreover, the “Adventitial findings (lesions)” value in data set [3] (30 mg/kg) is “all mice”. Moreover, in data set [3] (30 mg/kg), the “Incidence of adventitial findings” value worked out at 100%. For the same molecule, the MBEC50 in data set [4] and in data set [6] was 0.125 µg/mL throughout. In addition, the MBEC90 in data set [4] and in data set [6] was 0.125 µg/mL each time. The entries for the “MBEC Range” value in data set [4] and in data set [6] were 0.125 to 0.25 µg/mL and 0.125 to 0.5 µg/mL, respectively. Further, the MIC50 in data set [5] and in data set [7] was 0.5 µg/mL throughout. Also, the MIC90 came out at 0.5 µg/mL in data set [5] and 1 µg/mL in data set [7]. For the same molecule, the “MIC Range” value in data set [5] was 0.12 to 1 µg/mL; in data set [7] it was 0.5 to 1 µg/mL.
